# Data as given in publication PMC5732302 (2017).
# Biological target: dynein (Saccharomyces cerevisiae, UniProt P36022)
# Sequence (P36022 whole entry): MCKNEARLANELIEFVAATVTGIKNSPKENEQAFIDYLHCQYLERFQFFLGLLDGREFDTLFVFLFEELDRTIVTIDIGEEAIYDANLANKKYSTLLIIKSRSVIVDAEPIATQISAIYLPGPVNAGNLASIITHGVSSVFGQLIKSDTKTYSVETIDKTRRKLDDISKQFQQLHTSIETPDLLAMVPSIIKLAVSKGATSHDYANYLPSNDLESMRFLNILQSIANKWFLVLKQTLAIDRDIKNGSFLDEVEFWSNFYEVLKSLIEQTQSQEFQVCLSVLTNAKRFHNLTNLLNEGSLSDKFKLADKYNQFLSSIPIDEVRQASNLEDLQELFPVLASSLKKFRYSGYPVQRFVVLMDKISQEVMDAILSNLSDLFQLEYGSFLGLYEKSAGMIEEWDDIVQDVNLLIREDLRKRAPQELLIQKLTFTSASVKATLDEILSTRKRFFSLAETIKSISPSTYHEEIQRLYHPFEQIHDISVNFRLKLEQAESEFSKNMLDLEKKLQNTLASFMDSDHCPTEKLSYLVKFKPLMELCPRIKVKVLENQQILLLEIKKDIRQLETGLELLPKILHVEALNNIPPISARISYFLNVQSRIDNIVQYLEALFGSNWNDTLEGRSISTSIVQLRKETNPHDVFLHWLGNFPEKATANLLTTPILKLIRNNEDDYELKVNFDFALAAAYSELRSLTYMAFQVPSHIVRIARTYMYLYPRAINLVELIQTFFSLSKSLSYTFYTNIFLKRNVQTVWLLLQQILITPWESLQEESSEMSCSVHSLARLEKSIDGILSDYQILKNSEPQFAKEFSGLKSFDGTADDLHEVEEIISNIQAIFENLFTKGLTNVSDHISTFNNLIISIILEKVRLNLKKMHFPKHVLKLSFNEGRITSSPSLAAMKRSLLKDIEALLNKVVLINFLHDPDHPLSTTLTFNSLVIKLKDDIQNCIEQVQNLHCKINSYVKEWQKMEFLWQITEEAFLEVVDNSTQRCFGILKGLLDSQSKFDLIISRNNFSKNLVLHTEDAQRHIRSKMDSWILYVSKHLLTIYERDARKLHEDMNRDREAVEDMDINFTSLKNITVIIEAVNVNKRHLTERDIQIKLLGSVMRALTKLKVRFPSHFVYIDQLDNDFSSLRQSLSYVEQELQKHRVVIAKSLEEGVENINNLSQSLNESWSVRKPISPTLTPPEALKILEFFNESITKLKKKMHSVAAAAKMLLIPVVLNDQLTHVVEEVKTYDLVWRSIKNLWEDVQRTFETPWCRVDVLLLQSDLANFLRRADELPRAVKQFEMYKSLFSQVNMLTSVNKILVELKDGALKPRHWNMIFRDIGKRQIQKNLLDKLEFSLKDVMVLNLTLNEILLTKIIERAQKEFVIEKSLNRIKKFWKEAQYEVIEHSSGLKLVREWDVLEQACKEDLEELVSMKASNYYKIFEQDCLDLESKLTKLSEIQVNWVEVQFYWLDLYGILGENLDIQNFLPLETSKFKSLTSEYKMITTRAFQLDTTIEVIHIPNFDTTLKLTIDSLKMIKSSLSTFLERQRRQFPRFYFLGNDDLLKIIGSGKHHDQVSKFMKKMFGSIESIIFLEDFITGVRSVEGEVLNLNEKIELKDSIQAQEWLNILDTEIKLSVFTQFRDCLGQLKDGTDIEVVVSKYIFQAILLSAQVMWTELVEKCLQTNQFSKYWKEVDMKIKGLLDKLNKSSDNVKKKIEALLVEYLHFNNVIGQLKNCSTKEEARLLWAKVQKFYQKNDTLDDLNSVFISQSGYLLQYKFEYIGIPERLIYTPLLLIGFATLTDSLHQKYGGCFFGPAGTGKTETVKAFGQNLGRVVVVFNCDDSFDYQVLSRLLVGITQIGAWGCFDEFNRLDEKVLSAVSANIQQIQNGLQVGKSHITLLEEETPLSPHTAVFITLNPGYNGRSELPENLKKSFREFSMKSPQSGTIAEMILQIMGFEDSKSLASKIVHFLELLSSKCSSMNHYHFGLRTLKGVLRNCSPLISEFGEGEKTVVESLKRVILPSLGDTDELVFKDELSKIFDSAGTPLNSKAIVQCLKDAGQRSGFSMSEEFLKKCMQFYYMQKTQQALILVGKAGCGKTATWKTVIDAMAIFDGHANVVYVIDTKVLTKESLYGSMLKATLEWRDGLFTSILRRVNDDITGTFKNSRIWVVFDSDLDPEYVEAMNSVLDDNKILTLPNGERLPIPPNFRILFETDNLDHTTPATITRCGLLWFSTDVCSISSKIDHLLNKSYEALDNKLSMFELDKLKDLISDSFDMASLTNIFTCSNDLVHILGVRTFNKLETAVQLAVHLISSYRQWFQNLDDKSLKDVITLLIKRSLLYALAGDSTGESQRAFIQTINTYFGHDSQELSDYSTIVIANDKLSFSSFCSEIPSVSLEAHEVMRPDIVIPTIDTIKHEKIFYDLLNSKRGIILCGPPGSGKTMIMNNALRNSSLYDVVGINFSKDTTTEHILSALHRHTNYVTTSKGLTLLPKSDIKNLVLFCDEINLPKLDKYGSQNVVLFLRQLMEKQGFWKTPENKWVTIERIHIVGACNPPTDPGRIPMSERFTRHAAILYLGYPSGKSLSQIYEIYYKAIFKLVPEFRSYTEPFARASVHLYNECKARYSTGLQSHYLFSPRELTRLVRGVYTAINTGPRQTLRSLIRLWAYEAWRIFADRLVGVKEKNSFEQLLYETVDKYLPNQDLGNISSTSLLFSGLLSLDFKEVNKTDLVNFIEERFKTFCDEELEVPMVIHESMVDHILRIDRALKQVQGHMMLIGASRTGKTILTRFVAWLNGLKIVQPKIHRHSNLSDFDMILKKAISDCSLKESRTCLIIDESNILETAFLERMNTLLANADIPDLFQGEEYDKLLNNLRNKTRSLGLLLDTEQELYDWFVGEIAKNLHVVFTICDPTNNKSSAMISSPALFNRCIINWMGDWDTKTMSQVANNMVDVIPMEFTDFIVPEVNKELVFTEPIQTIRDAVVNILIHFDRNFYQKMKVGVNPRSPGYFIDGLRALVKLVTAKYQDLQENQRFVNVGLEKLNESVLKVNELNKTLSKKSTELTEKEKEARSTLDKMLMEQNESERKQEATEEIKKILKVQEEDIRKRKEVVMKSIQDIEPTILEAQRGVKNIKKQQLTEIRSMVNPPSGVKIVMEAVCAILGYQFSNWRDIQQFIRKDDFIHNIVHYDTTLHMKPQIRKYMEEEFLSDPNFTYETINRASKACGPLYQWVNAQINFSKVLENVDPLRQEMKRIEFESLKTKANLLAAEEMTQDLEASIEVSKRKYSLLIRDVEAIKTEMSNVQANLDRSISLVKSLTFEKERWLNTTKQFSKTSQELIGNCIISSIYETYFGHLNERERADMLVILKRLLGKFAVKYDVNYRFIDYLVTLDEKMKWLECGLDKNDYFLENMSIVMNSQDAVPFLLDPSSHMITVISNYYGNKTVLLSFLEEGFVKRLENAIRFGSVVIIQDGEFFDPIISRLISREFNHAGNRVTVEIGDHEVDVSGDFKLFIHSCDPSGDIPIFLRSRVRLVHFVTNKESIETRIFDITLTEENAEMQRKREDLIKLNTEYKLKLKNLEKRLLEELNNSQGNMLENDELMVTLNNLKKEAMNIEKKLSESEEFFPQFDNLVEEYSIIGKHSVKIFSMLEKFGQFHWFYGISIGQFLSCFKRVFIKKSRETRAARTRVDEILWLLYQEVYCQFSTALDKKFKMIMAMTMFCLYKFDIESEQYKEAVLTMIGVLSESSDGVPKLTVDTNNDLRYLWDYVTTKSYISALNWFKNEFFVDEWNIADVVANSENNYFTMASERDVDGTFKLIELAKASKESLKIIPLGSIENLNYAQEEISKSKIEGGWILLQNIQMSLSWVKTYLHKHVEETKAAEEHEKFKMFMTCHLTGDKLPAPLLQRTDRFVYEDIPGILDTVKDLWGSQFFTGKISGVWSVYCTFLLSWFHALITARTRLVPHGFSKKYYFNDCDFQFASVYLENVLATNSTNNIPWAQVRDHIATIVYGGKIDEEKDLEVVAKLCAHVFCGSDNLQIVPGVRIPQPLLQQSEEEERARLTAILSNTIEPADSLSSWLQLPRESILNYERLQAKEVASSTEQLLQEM
binder,measurement,value
She1 (protein) MNDKLQEEHNEKDTTSQINGFTPPHMSIDFHSNNNSNIIETIGVSKRLGNSVLSELDSRASSKFEFLKDQSEQQYNGDKNNEPKSGSYNINEFFQAKHDSQFGQMESLDTHYTLLHTPKRKSQHAIPQDRSDSMKRSRPSRSIPYTTPVVNDITRRIRRLKLRNSLVNGNDIVARARSMQANSNINSIKNTPLSKPKPFMHKPNFLMPTTNSLNKINSAHRNTSSSSTASSIPRSKVHRSISIRDLHAKTKPVERTPVAQGTNSQLKNSVSVFDRLYKQTTFSRSTSMNNLSSGTSAKSKEHTNVKTRLVKSKTSGSLSSNLKQSTATGTKSDRPIWR,Kd,< 0.2 nM
